The record followed here is patent US20260250381A1.

Assay [1] has as its target T1, human TREM2 (human) (UniProt Q9NZC2).
T1 sequence (looked up): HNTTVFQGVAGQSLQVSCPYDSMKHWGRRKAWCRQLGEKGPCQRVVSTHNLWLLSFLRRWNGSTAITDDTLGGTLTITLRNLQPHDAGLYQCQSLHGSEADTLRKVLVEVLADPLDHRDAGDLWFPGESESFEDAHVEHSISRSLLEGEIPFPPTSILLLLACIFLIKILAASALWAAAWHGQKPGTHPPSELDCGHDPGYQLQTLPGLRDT
The assay can be described thus: 2nd screen, 2 nM Ab.

Assay [2] has as its target T1, human TREM2 (human). The assay can be described thus: 1st screen, 10 nM Ab.
Assay [3] addresses T1, human TREM2 (human). The assay can be described thus: 2nd screen, 10 nM Ab.

B1: 6E7 variant V26 (antibody, V domains shown)
VH: EVQLVQSGAEVKKPGESLKISCKGSGYSFTSYWIGWVRQMPGKGLEWMGTIYPGDSDTRYSPSFQGQVTISADKSISTAYLQWSSLKASDTAMYFCARQRTMYYDSSDYFDAWGQGTLVTVSS
VL: DIQMTQSPSSVSASVGDRVTITCRASQGISSWLAWYQQKPGKAPKLLIYAASSLQRGVPSRFSGSGSGTDFTLTISSLQPEDFATYFCQQADSYPRTFGQGTKLEIK
For the molecule B1, the values for the Binding Signal (fold over 6E7 parental antibody) in the assay with human TREM2 (human) [1], with human TREM2 (human) [2] and in the assay with human TREM2 (human) [3] were 2.83 fold, 3.57 fold and 3.47 fold, respectively.

B2: 6E7 variant V27 (antibody, V domains shown)
VH: EVQLVQSGAEVKKPGESLKISCKGSGYSFTSYWIAWVRQMPGKGLEWMGIIYPGDSDTRYAPSFQGQVTISADKSISTAYLQWSSLKASDTAMYFCVRSRTFYYDSSDYFDYWGQGTLVTVSS
VL: DIQMTQSPSSVSASVGDRVTITCRASQGISSWLAWYQQKPGKAPKLLIYAASSLQRGVPSRFSGSGSGTDFTLTISSLQPEDFATYFCQQADSFPRTFGQGTKLEIK
For the molecule B2, the values for the Binding Signal (fold over 6E7 parental antibody) in the assay with human TREM2 (human) [1], with human TREM2 (human) [2] and in the assay with human TREM2 (human) [3] were 5.67 fold, 5.5 fold and 5.69 fold, respectively.

B3: 6E7 variant V28 (antibody, V domains shown)
VH: EVQLVQSGAEVKKPGESLKISCKGSGYSFQSYWIAWVRQMPGKGLEWMGTIYPGDSDTRYSPSFQGQVTISADKSISTAYLQWSSLKASDTAMYFCARQRTFFYDSSDYFDYWGQGTLVTVSS
VL: DIQMTQSPSSVSASVGDRVTITCRASQGISSWLAWYQQKPGKAPKLLIYAASSLQSGVPSRFSGSGSGTDFTLTISSLQPEDFATYFCQQADSLPRTFGQGTKLEIK
For B3, the figures for the Binding Signal (fold over 6E7 parental antibody) with human TREM2 (human) [1], with human TREM2 (human) [2] and in the assay with human TREM2 (human) [3] were 2.63 fold, 3.08 fold and 3.61 fold, respectively.

B4: 6E7 variant V29 (antibody, V domains shown)
VH: EVQLVQSGAEVKKPGESLKISCKGSGYSFKSYWIAWVRQMPGKGLEWMGIIYPGDSDTRYSPSFQGQVTISADKSISTAYLQWSSLKASDTAMYFCARQRTFYYDSSDYFDYWGQGTLVTVSS
VL: DIQMTQSPSSVSASVGDRVTITCRASQGISSWLAWYQQKPGKAPKLLIYAASSLQNGVPSRFSGSGSGTDFTLTISSLQPEDFATYFCQQADSFPRTFGQGTKLEIK
Regarding B4, the Binding Signal (fold over 6E7 parental antibody) turned out to be 0.84 fold with human TREM2 (human) [1], 1.53 fold in the assay with human TREM2 (human) [2] and 1.67 fold in the assay with human TREM2 (human) [3].
